US10413588B2, “Probiotic function of human intelectin” (Wisconsin Alumni Research Foundation, priority 2015, dated 2019)
“Also recorded” adds a separate entry of the source.

How the values were obtained:
[1] = hIntL-1 carbohydrate binding ELISA-like assay
[2] = CFG mammalian glycan array v5.1; type: binding; conditions: hIntL-1 at 50 and 200 μg/ml
[3] = hIntL-1 carbohydrate binding ELISA-like assay; remark: listed apart in the source
Protocol: To fabricate carbohydrate-displaying surfaces, 0.5 μg of streptavidin (Prozyme, cat. no. SA20) was adsorbed onto a Maxisorp (Nunc) flat bottom 96 well plate in PBS. Wells were washed with PBS and then coated with 5 μM of carbohydrate-biotin ligand in PBS for 1 hour at 22° C. Wells were blocked with bovine serum albumin (BSA) in ELISA buffer (20 mM HEPES (7.4) 150 mM NaCl, 10 mM CaCl2, and 0.1% tween-20). Samples containing hIntL-1 were prepared by serial dilution into ELISA buffer+0.1% BSA and added to wells for 2 hours at 22° C. Wells were washed four times with ELISA buffer. Bound hIntL-1 was detected using 0.75 μg/mL of a sheep IgG hIntL-1 antibody (R&D Systems, cat. no. AF4254) in ELISA buffer+0.1% BSA for 2 hours at 22° C. Wells were washed with ELISA buffer. A donkey anti-sheep IgG horseradish peroxidase (HRP) conjugate (Jackson ImmunoResearch Laboratories) was added at a 1:5,000 dilution in ELISA buffer+0.1% BSA for 1 hour at 22° C. Wells were washed and hIntL-1 was detected colorimetrically with addition of 1-Step Ultra TMB-ELISA (Pierce). Once sufficient signal was achieved (typically <2 min.), the reaction was quenched with addition of equal volume 2 M H2SO4. Plates were read at 450 nm on an ELx800 plate reader (Bio-Tek). When testing the Ca^2+ dependency of hIntL-1, 1 mM EDTA replaced 10 mM CaCl2 in all steps. Data were analyzed on Prism6 (GraphPad). […]

[4] = hIntL-1 surface plasmon resonance (SPR); type: binding
Protocol: All hIntL-1 SPR was performed on a ProteOn XPR36 (Bio-Rad) at the University of Wisconsin-Madison Department of Biochemistry Biophysics Instrumentation Facility (BIF). To measure hIntL-1 binding, ProteOn NLC sensor chips (Bio-Rad) (NeutrAvidin coated chips) were used to capture carbohydrate-biotin ligand. All experiments presented here were conducted at surface saturated levels of ligand, ˜200 RU. In all experiments, captured biotin served as a control. Samples containing purified hIntL-1 were prepared by serial dilution into hIntL-1 SPR running buffer (20 mM HEPES (7.4) 150 mM NaCl, 1 mM CaCl2, and 0.005% tween-20). Surfaces were regenerated with short injections of 10 mM HCl. All data was interspot corrected and processed using the Bio-Rad ProteOn software package.

[5] = Microbial Glycan Microarray (MGMv2); type: binding, Salmonella enterica; conditions: Strep-hIntL-1 50 μg/mL; terminal α-Galf residue
Protocol: (§1) Strep-hIntL-1 was used to interrogate the Microbial Glycan Microarray version 2 (MGMv2). Construction of the MGMv2 is previously described. Briefly, bacterial polysaccharide samples were dissolved and diluted to 0.5 mg/mL in printing buffer (150 mM sodium phosphate buffer (8.4)+0.005% Tween-20). Samples were immobilized on NETS-activated glass slides (SlideH, Schott/Nexterion) using a MicroGrid II (Digilab) contact microarray printer equipped with SMP-4B printing pins (Telechem). Six replicates of each bacterial glycan sample were printed. Covalent coupling of glycans to the surface was facilitated by incubation for 1 hour postprint at 100% relative humidity. The remaining reactive NHS-moieties were quenched using a blocking solution (50 mM ethanolamine in 50 mM borate buffer (9.2)). Blocked slides were stored at −20° C. until assays were performed. […] The Strep-Tag® II on bound hIntL-1 was detected using StrepMAB-Classic Chromeo647 (10 μg/mL, IBA GmbH Lifesciences) diluted in binding buffer applied directly to the array surface and allowed to incubate for 1 hour. […] Signal data was calculated as the average of 4 values after removing the high and low values of the 6 replicates. Data were plotted using Excel (Microsoft) as average Relative Fluorescence Units (RFU) versus print identification number. […]

[6] = Microbial Glycan Microarray (MGMv2); type: binding, S. pneumonia; conditions: Strep-hIntL-1 50 μg/mL; α-Galf containing glycan
Protocol: as §1

B1: hIntL-1: human lectin intelectin-1, accession no. Q8WWA0; recombinant disulfide-linked trimer from HEK 293T cells, used also N-terminally Strep-tagged (Strep-hIntL-1) (protein, listed as Homo sapiens)
chain: MNQLSFLLFLIATTRGWSTDEANTYFKEWTCSSSPSLPRSCKEIKDECPSAFDGLYFLRTENGVIYQTFCDMTSGGGGWTLVASVHENDMRGKCTVGDRWSSQQGSKAVYPEGDGNWANYNTFGSAEAATSDDYKNPGYYDIQAKDLGIWHVPNKSPMQHWRNSSLLRYRTDTGFLQTLGHNLFGIYQKYPVKYGEGKCWTDNGPVIPVVYDFGDAQKTASYYSPYGQREFTAGFVQFRVFNNERAANALCAGMRVTGCNTEHHCIGGGGYFPEASPQQCGDFSGFDWSGYGTHVGYSSSREITEAAVLLFYR
binding to β-Galf on addition of EDTA ([1]; hIntL-1 conditioned HEK culture media, addition of 25 mM EDTA): completely abolished binding | Kd ([1]; trimeric hIntL-1, ELISA-like assay, 10 mM CaCl2, read-out: avidity (apparent Kd) for immobilized β-Galf): 85 ± 14 nM | binding to human glycan ligands on CFG mammalian glycan array [2]: none are bound by hIntL-1 with appreciable affinity | binding to immobilized α-Neu5Ac [3]: lack of affinity; also recorded: does not bind | SPR response to immobilized β-galactopyranose ([4]; attributed to the extended anomeric alkyl linker): small response | binding to immobilized β-Galf by SPR ([4]; immobilized carbohydrate-biotin ligand, 1 mM CaCl2): robust binding | signal on microbial glycan array [5]: 66 RFU | average signal on microbial glycan array [6]: −9.6 RFU
